Assay [1] deals with Sushi domains (SD1/2) protein of the GABAB1a (GB1a) subunit, recombinant. The experiment in a line: FP competition.
In assay [2] the target is Sushi domains (SD1/2) protein of GABAB1a (GB1a). Nature of the assay: FP competition vs TAMRA AJAP-1probe.
Assay [3] concerns the target Sushi domains (SD1/2) protein of the GABAB1a (GB1a) subunit, recombinant. Nature of the assay: FP competition. This is another data set of the same source.

Like-named read-outs stand apart in the source and are kept apart here. Starred links: 1 amine or outer side, 2 acyl side, 3 side chain; linkers in the order of their positions; H or OH if unused. Non-standard residues stand in square brackets, D forms with d. Tyr(Me) = Omtyr, O-methyl-L-tyrosine, COc1ccc(C[C@H](N[*:1])C(=O)[*:2])cc1; Phe(4-NH2) = Nc1ccc(C[C@H](N)C(=O)O)cc1; Sar = CNCC(=O)O

Sushi domains (SD1/2) protein of GABAB1a (GB1a), sequence (Q9Z0U4 29-158): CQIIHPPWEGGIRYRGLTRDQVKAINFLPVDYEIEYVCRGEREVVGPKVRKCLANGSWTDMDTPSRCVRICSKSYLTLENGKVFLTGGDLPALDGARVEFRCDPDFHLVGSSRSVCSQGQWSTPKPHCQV
Sushi domains (SD1/2) protein of the GABAB1a (GB1a) subunit, recombinant, sequence (Q9Z0U4 29-158): as above

Usually Ki stands for a measure of affinity in units of concentration, obtained from inhibition or displacement. Regarding Ac-EDDDWIDWYDSDDD-NH2 [peptide 16 (Ac-…-NH2)], in assay [1], the Ki was 3.2 nM. The same measure, in the same setting: for Ac-ETEFIAWGGADTD-NH2 [hybrid peptide Y (Ac-…-NH2)] the value was 354 nM; for Ac-EDDSWIDWYGADTD-NH2 [peptide 30 (Ac-…-NH2)], 11 nM; for Ac-EDDYIDWYDSDDD-NH2 [peptide 18 (Ac-…-NH2)], 4.6 nM. On the same count and under the same terms, next, Ac-EDDSWIDWGPTGDED-NH2 [peptide 29 (Ac-…-NH2)]: 5.6 nM.

B1: EDDSDVWW(Aphe)GADTD (peptide)
peptide: Ac-EDDSDVWW[Phe(4-NH2)]GADTD-NH2
SMILES: CC(=O)N[C@@H](CCC(=O)O)C(=O)N[C@@H](CC(=O)O)C(=O)N[C@@H](CC(=O)O)C(=O)N[C@@H](CO)C(=O)N[C@@H](CC(=O)O)C(=O)N[C@H](C(=O)N[C@@H](Cc1c[nH]c2ccccc12)C(=O)N[C@@H](Cc1c[nH]c2ccccc12)C(=O)N[C@@H](Cc1ccc(N)cc1)C(=O)NCC(=O)N[C@@H](C)C(=O)N[C@@H](CC(=O)O)C(=O)N[C@H](C(=O)N[C@@H](CC(=O)O)C(N)=O)[C@@H](C)O)C(C)C
With B1, the Ki in assay [2] was found to be 102 nM; in assay [3] it was 100 nM.

B2: PWAIVWG(N-Me-G)TVSRED (peptide)
peptide: Ac-PWAIVWG[Sar]TVSRED-NH2
SMILES: CC[C@H](C)[C@H](NC(=O)[C@H](C)NC(=O)[C@H](Cc1c[nH]c2ccccc12)NC(=O)[C@@H]1CCCN1C(C)=O)C(=O)N[C@H](C(=O)N[C@@H](Cc1c[nH]c2ccccc12)C(=O)NCC(=O)N(C)CC(=O)N[C@H](C(=O)N[C@H](C(=O)N[C@@H](CO)C(=O)N[C@@H](CCCNC(=N)N)C(=O)N[C@@H](CCC(=O)O)C(=O)N[C@@H](CC(=O)O)C(N)=O)C(C)C)[C@@H](C)O)C(C)C
In the case of B2, the Ki in assay [2] and in assay [3] was 525 nM throughout.

B3: EDDSDVWW(Omtyr)GADTD (peptide)
peptide: Ac-EDDSDVWW[Tyr(Me)]GADTD-NH2
SMILES: COc1ccc(C[C@H](NC(=O)[C@H](Cc2c[nH]c3ccccc23)NC(=O)[C@H](Cc2c[nH]c3ccccc23)NC(=O)[C@@H](NC(=O)[C@H](CC(=O)O)NC(=O)[C@H](CO)NC(=O)[C@H](CC(=O)O)NC(=O)[C@H](CC(=O)O)NC(=O)[C@H](CCC(=O)O)NC(C)=O)C(C)C)C(=O)NCC(=O)N[C@@H](C)C(=O)N[C@@H](CC(=O)O)C(=O)N[C@H](C(=O)N[C@@H](CC(=O)O)C(N)=O)[C@@H](C)O)cc1
B3: the inhibitory constant (Ki) came out at 109 nM in assay [2] and 100 nM in assay [3].

Consider Ac-EDDYIDWGPTSDDD-NH2 [peptide 19 (Ac-…-NH2)], for which the inhibition constant (Ki) in assay [1] is 3.8 nM.

As for EDDDAIDWYDSDDD (N-terminal acetyl; C-terminal amide; 3-(2-naphthyl)-L-alanine (2Nala) at 5) [peptide 20 (Ac-EDDD(2Nala)…-NH2)], the Ki in assay [1] was found to be 1.5 nM.

Consider Ac-ETEFIAWYGADTD-NH2 [peptide 37 (Ac-…-NH2)], for which the inhibition constant (Ki) in assay [1] came to 95 nM. As for Ac-EDDDWIDWGPTSDDD-NH2 [peptide 17 (Ac-…-NH2)], the inhibitory constant (Ki) in assay [1] came out at 4 nM. The same measure, in the same setting: next, Ac-EDDSWIWWYGADTD-NH2 [peptide 28 (Ac-…-NH2)]: 18 nM.

These data come from patent US20260193293A1, “PEPTIDES CAPABLE OF INHIBITING PROTEIN-PROTEIN INTERACTIONS AT GABAB1A SUBUNIT AND USES THEREOF” (UNIVERSITY OF COPENHAGEN, priority 2022, published 2026).
